Test results taken from paper PMC6802964 (2019).
Substitutions are numbered along the chain they refer to.

T1: Myo1 IQ12 (Schizosaccharomyces pombe, UniProt Q9Y7Z8)
T1 chain: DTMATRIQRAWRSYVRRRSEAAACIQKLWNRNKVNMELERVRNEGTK

T2: CyPet–Myo1^IQ12S742D–YPet FRET reporter protein (S742D phosphomimetic) (S. pombe)
T2 chain: T1 chain with S19D

T3: CyPet–Myo1^IQ12–YPet FRET reporter protein (S. pombe)
T3 chain: T1 chain

T4: CyPet–Myo1^IQ1–YPet FRET reporter protein (S. pombe)
T4 chain: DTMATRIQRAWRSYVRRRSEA

B1: Cam2 (protein)
chain: MPASKEQTDEMKEAFVLYDIDKDGLIPTSHVGSVLRSLGINVTDAELAKLSNELGDAIDEKKFMSFVSNKLRETESEEEYIKAFRVFDKDNSGYIETAKFADYMKTLGEKLSDNEVQLMVQEADPTNSGSFDYYDFVQRIMAK
B2: Cam2 (calcium-insensitive calmodulin-like protein) (natural protein)
chain: B1 chain
B3: Cam1 (wild type, amino-terminally acetylated fission yeast calmodulin) (natural protein)
chain: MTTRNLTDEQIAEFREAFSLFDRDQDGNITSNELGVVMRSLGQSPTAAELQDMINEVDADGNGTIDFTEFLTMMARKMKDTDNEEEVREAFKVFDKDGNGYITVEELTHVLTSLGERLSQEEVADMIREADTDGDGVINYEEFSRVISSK
modifications: amino-terminally (Nt) acetylated
B4: Cam1 (protein)
chain: not shown

Tests used:
Myo1 IQ12 = molecular target: T1, Myo1 IQ12; assay: FRET
[1] = molecular target: T2, CyPet–Myo1^IQ12S742D–YPet FRET reporter …; assay: FRET
[2] = molecular target: T3, CyPet–Myo1^IQ12–YPet FRET reporter …; assay: FRET; first site (Kd1)
[3] = molecular target: T4, CyPet–Myo1^IQ1–YPet FRET reporter …; assay: FRET
[4] = molecular target: T2, CyPet–Myo1^IQ12S742D–YPet FRET reporter …; assay: FRET; first site (Kd1)
[5] = molecular target: T2, CyPet–Myo1^IQ12S742D–YPet FRET reporter …; assay: FRET; second site (Kd2)

Row | Binder | Kd (Myo1 IQ12) | Kd [2] | other results
1 | B1 | 1100 nM |  | 
2 | B2 |  | 20 nM | Kd [1]: 250 nM
3 | B3 |  | 40 nM | Kd [3]: 60 nM; Kd [4]: 90 nM; Kd [5]: 540 nM
4 | B4 | 680 nM |  | 
